The values below come from patent publication US20170355769A1 (AbbVie / Abbott, published 2017).

In experiment [1] the target is T1, Cynomolgous B7-H3 on cells (cynomolgus).
T1 construct: whole, on cells; also called cyB7-H3; cyno B7-H3
Put plainly: FACS, 3T12 transfectants. On the technique in general: Flow cytometry measures light scatter and fluorescence of single cells or particles in a stream.

Experiment [2] deals with T2, Human full length B7-H3 (human, UniProt Q5ZPR3 29-534).
T2 construct: On 3T12 fibroblasts expressing full length human B7-H3 or on NCI-H1650 cells; signal peptide residues 1-28 stated; also called huB7-H3; CD276
T2 sequence: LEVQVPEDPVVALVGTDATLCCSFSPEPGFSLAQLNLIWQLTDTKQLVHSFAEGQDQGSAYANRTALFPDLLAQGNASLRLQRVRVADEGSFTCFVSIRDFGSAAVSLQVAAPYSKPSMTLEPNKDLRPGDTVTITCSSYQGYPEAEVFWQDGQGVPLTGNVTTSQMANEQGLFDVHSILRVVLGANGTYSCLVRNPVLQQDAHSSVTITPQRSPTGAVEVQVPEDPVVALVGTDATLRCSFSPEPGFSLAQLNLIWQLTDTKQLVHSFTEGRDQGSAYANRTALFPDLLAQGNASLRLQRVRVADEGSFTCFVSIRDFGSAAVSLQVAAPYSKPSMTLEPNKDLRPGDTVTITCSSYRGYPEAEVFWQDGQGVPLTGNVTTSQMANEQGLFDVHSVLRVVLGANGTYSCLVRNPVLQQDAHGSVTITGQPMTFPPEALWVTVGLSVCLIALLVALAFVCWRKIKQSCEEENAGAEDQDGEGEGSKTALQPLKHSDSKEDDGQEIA
Put plainly: FACS, 3T12 transfectants.

Experiment [3] deals with T3, hB7-H3 (ELISA antigen of Tables 17 and 20) (human, UniProt Q5ZPR3 29-466, limits assumed).
T3 sequence: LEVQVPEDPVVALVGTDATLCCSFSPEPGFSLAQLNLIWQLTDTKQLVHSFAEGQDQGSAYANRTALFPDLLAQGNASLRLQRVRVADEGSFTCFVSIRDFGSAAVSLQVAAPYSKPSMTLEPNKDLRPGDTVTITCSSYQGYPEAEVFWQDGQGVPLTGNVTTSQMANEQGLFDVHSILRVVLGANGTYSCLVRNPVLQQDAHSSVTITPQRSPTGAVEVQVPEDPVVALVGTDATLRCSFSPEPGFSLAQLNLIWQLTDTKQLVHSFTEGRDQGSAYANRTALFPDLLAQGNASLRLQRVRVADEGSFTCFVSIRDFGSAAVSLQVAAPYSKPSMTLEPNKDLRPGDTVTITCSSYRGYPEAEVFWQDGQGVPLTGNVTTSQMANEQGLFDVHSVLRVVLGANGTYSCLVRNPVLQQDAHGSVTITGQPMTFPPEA
The experiment in a line: ELISA. Background: An ELISA detects its analyte on a solid surface through an enzyme-linked reagent.

For experiment [4], the target named is T2, Human full length B7-H3. Put plainly: cell-based or functional assay.
Experiment [5] concerns the target T2, Human full length B7-H3. Put plainly: FACS (Example 6 method). The protocol:
(§1) Cells were harvested from flasks when approximately 80% confluent using Gibco® Cell Dissociation Buffer. Cells were washed once in PBS/1% FBS (FACS buffer) then resuspended at 2.5×10⁶ cells/mL in FACS buffer. 100 μL of cells/well were added to a round bottom 96-well plate. 10 μL of a 10× concentration of mAb/ADC (final concentrations are indicated the figures). Wells were washed twice with FACS buffer and resuspended in 50 μL of secondary Ab (AlexaFluor 488) diluted in FACS buffer. The plate was incubated at 4° C. for one hour and washed twice with FACS buffer. Cells were resuspended in 100 μL of PBS/1% formaldehyde and analyzed on a Becton Dickinson LSRII flow cytometer. Data was analyzed using WinList flow cytometry analysis software.
These variants were further characterized for binding by SPR and as ADCs conjugated to the Bcl-xL inhibitor synthon (linker warhead) CZ. […] An ADC comprising chAb3 conjugated to synthon CZ was used as a control.

The target of experiment [6] is T2, Human full length B7-H3. Put plainly: FACS, 3T12 transfectants. The source holds these as a separate data set.
For experiment [7], the target named is T3, hB7-H3 (ELISA antigen of Tables 17 and …). The experiment in a line: ELISA. The source holds these as a separate data set.
Experiment [8] addresses T1, Cynomolgous B7-H3 on cells. The experiment in a line: FACS (Example 6 method). The protocol: as §1
(§2) Nine huAb13 variants described in Examples 17 and 18 were generated and tested for binding to B7-H3 by FACS (according to methods described in Example 6).

The target of experiment [9] is T2, Human full length B7-H3. Put plainly: FACS.
The target in experiment [10] is T2, Human full length B7-H3. Put plainly: FACS (Example 6 method). The protocol: as §1, §2
The source holds these as a separate data set.

Where two headings read alike, the source gives them in different places.

B1: huAb3v2.6-CZ (antibody, human IgG1, kappa, L234A L235A, V domains shown)
VH: EVQLVQSGAEVKKPGSSVKVSCKASGYTFSSYWMHWVRQAPGQGLEWIGLIHPESGSTNYNEMFKNRATLTVDRSTSTAYMELSSLRSEDTAVYYCAGGGRLYFDYWGQGTTVTVSS
VL: DIVMTQSPLSLPVTPGEPASISCRSSQSLVHSNQDTYLRWYLQKPGQSPQLLIYKVSNRFSGVPDRFSGSGSGTDFTLKISRVEAEDVGVYYCSQSTHVPYTFGGGTKVEIKR
modifications: synthon CZ on reduced interchain Cys
A word on the EC50: it is the concentration needed to bring the measured effect to its halfway point. High values mean a less potent agent, low ones a more potent agent. Turning to B1, the EC50 in experiment [1] was found to be 3.31 nM; in the experiment with Human full length B7-H3 [2] it was 5.64 nM; in experiment [3] it was 0.09 nM. The “EC50 nM H1650 (tumor cell cytotoxicity)” value in the experiment with Human full length B7-H3 [4] amounted to 0.4 nM.

B2: huAb3v2-CZ (antibody, V domains shown)
VH: EVQLVQSGAEVKKPGSSVKVSCKASGYTFSSYWMHWVRQAPGQGLEWIGLIHPDSGSTNYNEMFKNRATLTVDRSTSTAYMELSSLRSEDTAVYYCAGGGRLYFDYWGQGTTVTVSS
VL: DIVMTQSPLSLPVTPGEPASISCRSSQSLVHSNGDTYLRWYLQKPGQSPQLLIYKVSNRFSGVPDRFSGSGSGTDFTLKISRVEAEDVGVYYCSQSTHVPYTFGGGTKVEIK
modifications: synthon CZ on reduced interchain Cys
B2: the EC50 in [1] amounted to 2.87 nM; with Human full length B7-H3 [2] it was 5.11 nM; in experiment [3], 0.44 nM; in the experiment with Human full length B7-H3 [5] it was 0.73 nM.

B3: huAb3v2.8 (antibody, V domains shown)
VH: EVQLVQSGAEVKKPGSSVKVSCKASGYTFSSYWMHWVRQAPGQGLEWIGLIHPISGSTNYNEMFKNRATLTVDRSTSTAYMELSSLRSEDTAVYYCAGGGRLYFDYWGQGTTVTVSS
VL: DIVMTQSPLSLPVTPGEPASISCRSSQSLVHSNRDTYLRWYLQKPGQSPQLLIYKVSNRFSGVPDRFSGSGSGTDFTLKISRVEAEDVGVYYCSQSTHVPYTFGGGTKVEIK
notes: humanized IgG
Consider B3, for which the binding result in the experiment with Human full length B7-H3 [6] is “binds”.

B4: huAb3v2.2 (antibody, V domains shown)
VH: EVQLVQSGAEVKKPGSSVKVSCKASGYTFSSYWMHWVRQAPGQGLEWIGLIHPWSGSTNYNEMFKNRATLTVDRSTSTAYMELSSLRSEDTAVYYCAGGGRLYFDYWGQGTTVTVSS
VL: DIVMTQSPLSLPVTPGEPASISCRSSQSLVHSNRDTYLRWYLQKPGQSPQLLIYKVSNRFSGVPDRFSGSGSGTDFTLKISRVEAEDVGVYYCSQSTHVPYTFGGGTKVEIK
notes: humanized IgG
For B4, the binding result in the experiment with Human full length B7-H3 [6] was “binds”.

B5: huAb3v2.3 (antibody, V domains shown)
VH: EVQLVQSGAEVKKPGSSVKVSCKASGYTFSSYWMHWVRQAPGQGLEWIGLIHPWSGSTNYNEMFKNRATLTVDRSTSTAYMELSSLRSEDTAVYYCAGGGRLYFDYWGQGTTVTVSS
VL: DIVMTQSPLSLPVTPGEPASISCRSSQSLVHSNQDTYLRWYLQKPGQSPQLLIYKVSNRFSGVPDRFSGSGSGTDFTLKISRVEAEDVGVYYCSQSTHVPYTFGGGTKVEIK
notes: humanized IgG
In the case of B5, in the experiment with Human full length B7-H3 [6], the binding result is on record as “binds”.

B6: huAb3v2.9 (antibody, V domains shown)
VH: EVQLVQSGAEVKKPGSSVKVSCKASGYTFSSYWMHWVRQAPGQGLEWIGLIHPISGSTNYNEMFKNRATLTVDRSTSTAYMELSSLRSEDTAVYYCAGGGRLYFDYWGQGTTVTVSS
VL: DIVMTQSPLSLPVTPGEPASISCRSSQSLVHSNQDTYLRWYLQKPGQSPQLLIYKVSNRFSGVPDRFSGSGSGTDFTLKISRVEAEDVGVYYCSQSTHVPYTFGGGTKVEIK
notes: humanized IgG
With B6, the binding result with Human full length B7-H3 [6] is recorded as “binds”.

B7: huAb13v1-CZ (antibody, human IgG1, kappa, L234A L235A, V domains shown)
VH: EVQLQESGPGLVKPSETLSLTCAVTGYSITSGYSWHWIRQFPGNGLEWMGYIHSSGSTNYNPSLKSRISISRDTSKNQFFLKLSSVTAADTAVYYCAGYDDYFEYWGQGTTVTVSS
VL: DIQMTQSPSSLSASVGDRVTITCKASQNVGFNVAWYQQKPGKSPKALIYSASYRYSGVPSRFSGSGSGTDFTLTISSLQPEDFAEYFCQQYNWYPFTFGQGTKLEIKR
modifications: synthon CZ on reduced interchain Cys
notes: ADC, DAR 4.0
As for B7, the EC50 in experiment [7] came to 0.12 nM; in [8] it was 10 nM. Also, in the experiment with Human full length B7-H3 [4], the “EC50 nM H1650 (tumor cell cytotoxicity)” value amounted to 0.18 nM.

B8: huAb13v9 (antibody, V domains shown)
VH: EVQLQESGPGLVKPSETLSLTCAVSGYSITSGYSWHWIRQPPGNGLEWMGYIHSSGSTNYNPSLKSRITISRDTSKNQFSLKLSSVTAADTAVYYCARYDDYFEYWGQGTTVTVSS
VL: DIQMTQSPSSLSASVGDRVTITCKASQNVGFNVAWYQQKPGKAPKLLIYSASYRYSGVPSRFSGSGSGTDFTLTISSLQPEDFATYFCQQYNWYPFTFGQGTKLEIK
notes: humanized IgG
In the case of B8, the binding result with Human full length B7-H3 [9] is on record as “no binding”.

B9: huAb13v8 (antibody, V domains shown)
VH: EVQLQESGPGLVKPSETLSLTCAVSGYSITSGYSWHWIRQPPGNGLEWMGYIHSSGSTNYNPSLKSRITISRDTSKNQFSLKLSSVTAADTAVYYCARYDDYFEYWGQGTTVTVSS
VL: DIQMTQSPSSLSASVGDRVTITCKASQNVGFNVAWYQQKPGKSPKALIYSASYRYSGVPSRFSGSGSGTDFTLTISSLQPEDFAEYFCQQYNWYPFTFGQGTKLEIK
notes: humanized IgG
On to B9, for which, in the experiment with Human full length B7-H3 [9], the binding result was “no binding”.

B10: huAb13v7 (antibody, V domains shown)
VH: EVQLQESGPGLVKPSETLSLTCAVSGYSITSGYSWHWIRQPPGNGLEWMGYIHSSGSTNYNPSLKSRITISRDTSKNQFSLKLSSVTAADTAVYYCARYDDYFEYWGQGTTVTVSS
VL: DIQMTQSPSSLSASVGDRVTITCKASQNVGFNVAWYQQKPGKAPKLLIYSASYRYSGVPSRFSGSGSGTDFTLTISSLQPEDFATYYCQQYNWYPFTFGQGTKLEIK
notes: humanized IgG
For the molecule B10, the binding result with Human full length B7-H3 [9] was “no binding”.

B11: huAb13v4 (antibody, V domains shown)
VH: EVQLQESGPGLVKPSETLSLTCAVSGYSITSGYSWHWIRQPPGKGLEWIGYIHSSGSTNYNPSLKSRVTISVDTSKNQFSLKLSSVTAADTAVYYCARYDDYFEYWGQGTTVTVSS
VL: DIQMTQSPSSLSASVGDRVTITCKASQNVGFNVAWYQQKPGKAPKLLIYSASYRYSGVPSRFSGSGSGTDFTLTISSLQPEDFATYFCQQYNWYPFTFGQGTKLEIK
notes: humanized IgG
With B11, the binding result with Human full length B7-H3 [9] is “no binding”.

B12: huAb13v2 (antibody, V domains shown)
VH: EVQLQESGPGLVKPSETLSLTCAVSGYSITSGYSWHWIRQPPGKGLEWIGYIHSSGSTNYNPSLKSRVTISVDTSKNQFSLKLSSVTAADTAVYYCARYDDYFEYWGQGTTVTVSS
VL: DIQMTQSPSSLSASVGDRVTITCKASQNVGFNVAWYQQKPGKAPKLLIYSASYRYSGVPSRFSGSGSGTDFTLTISSLQPEDFATYYCQQYNWYPFTFGQGTKLEIK
notes: humanized IgG
As for B12, the binding result with Human full length B7-H3 [9] was “no binding”.

B13: huAb13v5-CZ (antibody, V domains shown)
VH: EVQLQESGPGLVKPSETLSLTCAVTGYSITSGYSWHWIRQFPGNGLEWMGYIHSSGSTNYNPSLKSRISISRDTSKNQFFLKLSSVTAADTAVYYCAGYDDYFEYWGQGTTVTVSS
VL: DIQMTQSPSSLSASVGDRVTITCKASQNVGFNVAWYQQKPGKAPKLLIYSASYRYSGVPSRFSGSGSGTDFTLTISSLQPEDFATYYCQQYNWYPFTFGQGTKLEIK
modifications: synthon CZ on reduced interchain Cys
notes: ADC, DAR 3.4
With B13, the figures for the half-maximal effective concentration (EC50) (in [7]; in experiment [8]; with Human full length B7-H3 [10]) were 0.19 nM, 10.6 nM and 5.21 nM, respectively.

B14: huAb13v3 (antibody, V domains shown)
VH: EVQLQESGPGLVKPSETLSLTCAVSGYSITSGYSWHWIRQPPGKGLEWIGYIHSSGSTNYNPSLKSRVTISVDTSKNQFSLKLSSVTAADTAVYYCARYDDYFEYWGQGTTVTVSS
VL: DIQMTQSPSSLSASVGDRVTITCKASQNVGFNVAWYQQKPGKSPKALIYSASYRYSGVPSRFSGSGSGTDFTLTISSLQPEDFAEYFCQQYNWYPFTFGQGTKLEIK
notes: humanized IgG
Turning to B14, in the experiment with Human full length B7-H3 [9], the binding result is reported as “no binding”.
